In the supplement of paper PMC12042874:
± gives the uncertainty stated by the source.

Test: amyloid nucleation score (Sup35N fusion, yeast selection) (log enrichment); library NNK2; higher = more nucleation; inactive = no reads after selection
Method in brief: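 Psi-negative yeast expressed Sup35N fused to peptides of 20 random codons. They were induced 24 hours with 100 μM copper sulfate, grown 7 days at 30°C without adenine and uracil, and their plasmid inserts from input and output were Illumina-sequenced. The nucleation score is the DiMSum log enrichment of output over input reads, centred on the mode score of non-aggregating sequences. Sequences with under 100 input reads were excluded.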

Substance | amyloid nucleation score
NISDFVKLVSYWVSVRCDLR | -0.305 ± 1.1
NISDTSMISNGYCIN | 0.154 ± 0.63
NISGATMEVVIYHDAVCESN | -0.361 ± 0.63
NITMMGLVVTFVAISVRLSL | 0.959 ± 0.47
NITSSNRGVSFEETGVNAGI | inactive
NIYADNARVWLPRGDRGLEW | 0.799 ± 0.74
NKATNKTDRVMKPSAKKDTE | -0.796 ± 0.39
NKFDRFMFPRVR | -0.98 ± 0.35
NKGSPCISCFVENDLYYLKY | -0.707 ± 0.42
NKLWFWMGHTMSVEFDLIDN | inactive
NKRATALCNLHF | inactive
NKSLFMKFCVSLFRLGSYVT | -0.618 ± 0.48
NLCHSNKCLNSRFSITHWV | 0.246 ± 0.8
NLCTVVCSDTAVLWTALPRL | 9.478 ± 0.062
NLECLYKLFPDFASLIRLCV | 0.185 ± 0.8
NLFFVGPCELSRWLGFSNLQ | 5.874 ± 0.032
NLFPSQTLYVFRHVGCCG | inactive
NLHFSLNCMIFQPTASRLKH | 6.824 ± 0.031
NLKRMFYVGCSIVSRKLIGR | -0.095 ± 0.5
NLNSFMVADYLYGDQVQKVF | 0.138 ± 0.8
NLNYLVLTYDVSVWNVYVVL | 8.17 ± 0.046
NLRGETRGVKLCLIWDVGRA | 0.078 ± 0.55

Substance | amyloid nucleation score
NLRHKDGTGLLRSWMSIQRR | 0.436 ± 0.62
NLRRCSHFHLACP | inactive
NLVFCFDFQMSAPISGEMQY | 4.87 ± 0.098
NLVFKPFCEPSVVSV | 0.099 ± 0.62
NLVILFGKWRRFLFAQWNWF | inactive
NLYAPGSIYSASFFRVMTLG | -1.04 ± 0.48
NMFTETDRILVLFIRCLVDC | 0.305 ± 1
NMGIRRFKFYIVNA | -0.965 ± 0.78
NMGSYD | inactive
NMKSWGSVV | -0.145 ± 0.79
NMMGMAYSV | 0.063 ± 1.1
NMMISCVNTLADDVFRGGFV | -1.33 ± 0.31
NMTVFT | -0.202 ± 0.22
NMVLWWPIMYHLAWRLGHDV | -0.137 ± 0.38
NMWLCNGSGRHRFWLR | 0.269 ± 0.51
NMYNLGFLSYYLKISGYLLD | -1.85 ± 1
NNCNSSSSFIIPVAFTSVIN | -1.67 ± 0.61
NNLLRYSVFNI | inactive
NNMINDGNSMV | 0.026 ± 0.39
NNSYIRLS | -0.883 ± 0.45
NNVANW | 0.569 ± 0.48
NNWYQTGSVAEASIEPSSMQ | 1.6 ± 0.41

Substance | amyloid nucleation score
NQALTTSPHSYIRFSCTCMF | 3.89 ± 0.14
NQMCIATFHHMAYT | 2.87 ± 0.086
NQNNDHSTWSIFKLCEVGCL | 8.986 ± 0.045
NQWSLRGGYWPVVLVCFAWM | inactive
NRDFMCESVRNCTLALMIGS | inactive
NRDTM | -1.13 ± 0.37
NRHWRFG | 2.7 ± 0.11
NRKYTILVLDLLEGSLCARE | 0.599 ± 0.42
NRMEYV | 1.02 ± 0.23
NRNTTFLNYF | 1.94 ± 0.25
NRQRRPRLVDKYGASRGVVY | 3.31 ± 0.11
NRRMRKAEPLP | 0.644 ± 0.81
NRTFSQRSVRLVSCPLLSKA | inactive
NRTSYQNLIDNATTVSIMF | 1.55 ± 0.22
NRYTLDVVNFSNNYSISSNR | 1.76 ± 0.12
NRYVFLGHCVPVRGATHFLV | 0.173 ± 1.1
NSAKKLRRPGATCPGQDGYT | 0.864 ± 0.41
NSFFGLTVSKEEYLCFFYMF | inactive
NSGHYFKDKSWCQMRS | 0.615 ± 0.66
NSICSNLDDSCEAKRTSRFH | -0.113 ± 0.65
NSIRSKDSDLRRYNPLPSTA | 4.46 ± 0.083
NSITSRYNGTDGPESVSQ | -0.299 ± 0.79

Substance | amyloid nucleation score
NSLMSFWVSVV | 0.208 ± 0.34
NSLVAVSLSAWWKPGDGSFS | 6.29 ± 0.085
NSMNVEHNMYNLFIYMPSFV | 7.065 ± 0.07
NSNFCCVGLCTNFAWFVCLM | 8.44 ± 0.064
NSRSLTDTHDCMVTGWATRH | -0.159 ± 0.45
NSVDYSWCCNTSRIRMLVNR | 1.2 ± 0.1
NSYTFLNT | inactive
NSYVKVHSIVG | inactive
NSYWWFANK | 2.54 ± 0.08
NTCGMRSLGKTFRIVSSLGS | 0.285 ± 0.43
NTFGLEILRGWSYVCLGRRR | 5.323 ± 0.052
NTGGS | -0.51 ± 0.61
NTHGR | 4.61 ± 0.073
NTIEGPRYYGTFAISNGVTQ | 0.824 ± 0.48
NTLKVQIV | 2.94 ± 0.075
NTNVCSSRRNPVCMMVEVVR | inactive
NTVRRVCFAVVEMSASIMDG | 0.738 ± 0.42
NVCLGFFPD | 0.282 ± 0.8
NVDRRQGETWSNPYDLMRRL | 0.291 ± 0.19
